Experimental findings from article PMC3605390, “Characterisation of ATP-Dependent Mur Ligases Involved in the Biogenesis of Cell Wall Peptidoglycan in Mycobacterium tuberculosis” (PLoS ONE, 2013) are described below.

In data set [1] the test system is CC(=O)N[C@H]1[C@@H](OP(=O)(O)OP(=O)(O)OC[C@H]2O[C@@H](n3ccc(=O)[nH]c3=O)[C@H](O)[C@@H]2O)O[C@H](CO)[C@@H](O)[C@@H]1O[C@H](C)C(=O)N[C@@H](C)C(=O)N[C@H](CCC(=O)N[C@@H](CCC[C@@H](N)C(=O)O)C(=O)O)C(=O)O. The data set can be described thus: purified protein. The settings on record: pH 8.5; 37.0 °C.
For data set [2], the system named is C[C@@H](N)C(=O)N[C@H](C)C(=O)O. The data set can be described thus: purified protein. Conditions: pH 8.5; 37.0 °C.

What is called Km is the concentration of substrate that gives half-maximal velocity. Usually kcat/Km stands for the turnover number divided by the Michaelis constant. In the case of MurF (Mycobacterium tuberculosis H37Rv), in data set [1], the Km is 64.5 ± 0.2 µM and the kcat/Km came out at 21700 ± 200 M⁻¹ s⁻¹. For the same substance, in data set [2], the Km turned out to be 78.1 ± 0.2 µM and the specificity constant (kcat/Km) turned out to be 18100 ± 300 M⁻¹ s⁻¹.
